Paper PMC10256215, “IFITM1 enhances nonenveloped viral RNA replication by facilitating cholesterol transport to the Golgi” (PLOS Pathogens, 2023)

Key:
Assay in all cases: two-hybrid; mammalian two-hybrid (Checkmate, Promega) in Vero cells; pACT and pBIND fusions in both orientations with the pG5luc reporter; firefly/Renilla luciferase at 48 h as fold of the control with empty pACT or pBIND
Details in all cases: partners not purified
[1] = molecular target: T1, ACBD3 (mammalian two-hybrid fusion) (UniProt Q9H3P7 1-528)
T1 construct: ACBD3, Golgi protein; two-hybrid construct not described; Two-hybrid construct not described in the methods; source: Vero cells, transfected, mammalian two-hybrid fusion
T1 sequence (looked up): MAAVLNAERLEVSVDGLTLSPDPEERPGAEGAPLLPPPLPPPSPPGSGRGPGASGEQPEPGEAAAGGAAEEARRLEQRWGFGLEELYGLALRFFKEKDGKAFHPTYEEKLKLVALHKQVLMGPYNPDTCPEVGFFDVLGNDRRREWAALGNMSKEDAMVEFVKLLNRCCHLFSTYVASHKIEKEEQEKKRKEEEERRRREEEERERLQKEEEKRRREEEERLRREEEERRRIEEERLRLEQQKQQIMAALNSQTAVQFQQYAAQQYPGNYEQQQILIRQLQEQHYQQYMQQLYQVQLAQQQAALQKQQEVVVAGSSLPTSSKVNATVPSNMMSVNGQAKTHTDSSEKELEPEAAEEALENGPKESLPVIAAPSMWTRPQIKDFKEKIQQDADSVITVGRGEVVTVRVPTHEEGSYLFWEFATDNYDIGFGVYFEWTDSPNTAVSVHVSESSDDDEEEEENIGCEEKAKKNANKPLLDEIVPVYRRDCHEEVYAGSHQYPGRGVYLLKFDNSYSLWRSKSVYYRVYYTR

[2] = molecular target: T2, PI4KB (mammalian two-hybrid fusion) (UniProt Q9UBF8 1-816)
T2 construct: PI4KB, Golgi protein; two-hybrid construct not described; Two-hybrid construct not described in the methods; also called phosphatidylinositol 4-kinase IIIβ; source: Vero cells, transfected, mammalian two-hybrid fusion
T2 sequence (Q9UBF8 whole entry, the tested form may be a part): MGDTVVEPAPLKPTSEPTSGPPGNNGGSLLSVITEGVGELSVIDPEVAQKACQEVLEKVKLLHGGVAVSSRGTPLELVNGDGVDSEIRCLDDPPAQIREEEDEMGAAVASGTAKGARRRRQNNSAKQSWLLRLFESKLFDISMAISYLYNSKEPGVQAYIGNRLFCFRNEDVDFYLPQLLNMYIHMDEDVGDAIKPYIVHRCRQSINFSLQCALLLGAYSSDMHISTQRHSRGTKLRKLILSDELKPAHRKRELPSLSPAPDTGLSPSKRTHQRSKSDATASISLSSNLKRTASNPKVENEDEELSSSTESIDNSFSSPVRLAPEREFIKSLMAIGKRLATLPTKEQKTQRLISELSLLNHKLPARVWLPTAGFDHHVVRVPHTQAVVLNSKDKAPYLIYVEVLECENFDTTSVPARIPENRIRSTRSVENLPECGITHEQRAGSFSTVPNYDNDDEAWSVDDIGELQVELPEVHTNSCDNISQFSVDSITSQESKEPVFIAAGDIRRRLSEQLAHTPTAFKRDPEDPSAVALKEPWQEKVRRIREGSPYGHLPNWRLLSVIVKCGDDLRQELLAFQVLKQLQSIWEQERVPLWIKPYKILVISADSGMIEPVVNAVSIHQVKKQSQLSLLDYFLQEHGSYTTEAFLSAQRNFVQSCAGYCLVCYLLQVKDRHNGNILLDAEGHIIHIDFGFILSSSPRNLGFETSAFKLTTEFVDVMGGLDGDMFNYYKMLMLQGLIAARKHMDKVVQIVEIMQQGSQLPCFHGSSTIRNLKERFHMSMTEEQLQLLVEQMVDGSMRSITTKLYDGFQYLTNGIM

[3] = molecular target: T3, OSBP (mammalian two-hybrid fusion) (UniProt P22059 1-807)
T3 construct: two-hybrid construct not described; Two-hybrid construct not described in the methods; source: Vero cells, transfected, mammalian two-hybrid fusion
T3 sequence (looked up): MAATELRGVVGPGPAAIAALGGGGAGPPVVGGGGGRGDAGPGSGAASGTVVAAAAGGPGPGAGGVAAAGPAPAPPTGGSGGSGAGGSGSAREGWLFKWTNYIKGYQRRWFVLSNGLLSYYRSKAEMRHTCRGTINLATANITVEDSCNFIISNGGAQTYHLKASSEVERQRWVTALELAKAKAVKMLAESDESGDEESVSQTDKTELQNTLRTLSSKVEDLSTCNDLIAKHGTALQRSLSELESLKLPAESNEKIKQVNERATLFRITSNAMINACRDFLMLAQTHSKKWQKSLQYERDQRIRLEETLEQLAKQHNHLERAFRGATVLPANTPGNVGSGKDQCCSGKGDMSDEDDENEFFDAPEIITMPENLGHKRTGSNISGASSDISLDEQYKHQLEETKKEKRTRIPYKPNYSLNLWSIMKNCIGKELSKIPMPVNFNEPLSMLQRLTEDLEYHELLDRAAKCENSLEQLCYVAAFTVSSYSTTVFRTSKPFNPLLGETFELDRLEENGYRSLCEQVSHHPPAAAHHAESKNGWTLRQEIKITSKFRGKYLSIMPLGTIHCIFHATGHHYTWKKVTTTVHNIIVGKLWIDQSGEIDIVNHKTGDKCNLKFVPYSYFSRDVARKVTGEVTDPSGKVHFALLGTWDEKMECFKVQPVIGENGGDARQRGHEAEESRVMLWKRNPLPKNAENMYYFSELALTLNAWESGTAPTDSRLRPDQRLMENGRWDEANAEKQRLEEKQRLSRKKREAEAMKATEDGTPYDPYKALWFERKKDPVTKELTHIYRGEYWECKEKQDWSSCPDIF

B1: IFITM1 (mammalian two-hybrid fusion) (natural protein, human, UniProt P13164 1-125, looked up)
chain: MHKEEHEVAVLGPPPSTILPRSTVINIHSETSVPDHVVWSLFNTLFLNWCCLGFIAFAYSVKSRDRKMVGDVTGAQAYASTAKCLNIWALILGILMTIGFILLLVFGSVTVYHIMLQIIQEKRGY
notes: IFITM1, human; coding region amplified by PCR from an OriGene cDNA clone; one fusion partner at a time; also called interferon-induced transmembrane protein 1; pACT-IFITM1; source: Vero cells, transfected, mammalian two-hybrid fusion
fold increase in luciferase activity [1]: 84.2 fold
fold increase in luciferase activity [2]: 8.2 fold
fold increase in luciferase activity [3]: 7.8 fold
